Results: the supplement of paper PMC10899765

Tests used:
Conditions in all cases: 20 nM; 72 h
MCF10A [1] = test: percent viability (nuclei count relative to siNT); higher = more viable cells
Experimental: (§1)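 After 72 h, cells were fixed and stained with Hoechst and anti-fibrillarin, and nucleoli per nucleus were counted with CellProfiler. Values are plate-adjusted percent effect for the one-nucleolus and 5+ nucleoli phenotypes, normalised to siNT (0%) and to the positive controls siNOL11 or siKIF11 (100%), as the mean of biological triplicates. Percent viability is the nuclei count relative to siNT.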

MCF10A [2] = test: 5+ nucleoli phenotype percent effect (relative to siNT 0% and siKIF11 100%); higher = more cells with five or more nucleoli
Experimental: as §1

MCF10A [3] = test: one-nucleolus phenotype percent effect (relative to siNT 0% and siNOL11 100%); higher = more cells with one nucleolus (ribosome biogenesis inhibition)
Experimental: as §1

Sequence	percent viability (MCF10A [1]) [%]	5+ nucleoli phenotype percent effect (MCF10A [2]) [%]	one-nucleolus phenotype percent effect (MCF10A [3]) [%]
CACAUAUGAAGUGAGCCAGCAC [hsa-miR-5580-3p]	56.3	-31.6	-6.62
CACAUGGCCGAAACAGAGAAGU [hsa-miR-942-3p]	32.7	-8.03	-19.9
CACAUUACACGGUCGACCUCU [hsa-miR-323a-3p]	49.9	-33.7	12.4
CACCAGGCAUUGUGGUCUCC [hsa-miR-1911-3p]	45	-9.8	26.3
CACCAUGGACGGUUUACC [hsa-miR-7153-3p]	23.4	-48.4	62.9
CACCCAGAUCUGCGGCCUAAU [hsa-miR-1295b-5p]	29.9	-30.7	34.4
CACCCCCUGUUUCCUGGCCCAC [hsa-miR-4640-3p]	127	31.4	-11.3
CACCCGGCUGUGUGCACAUGUGC [hsa-miR-941]	56.3	-23.6	-3.88
CACCCGUAGAACCGACCUUGCG [hsa-miR-99b-5p]	62.9	-9.05	21.8
CACCGACUCUGUCUCCUGCAG [hsa-miR-6510-3p]	69.9	-12.7	11.7
CACCGGGGAUGGCAGAGGGUCG [hsa-miR-4655-5p]	16.1	15	24.6
CACCUCUCCUGGCAUCGCCCC [hsa-miR-6800-3p]	128	21.6	-20.1
CACCUUGCGCUACUCAGGUCUG [hsa-miR-3200-3p]	24.5	-0.139	-8.76
CACCUUUGUGUCCCCAUCCUGCA [hsa-miR-6782-3p]	51.1	49.2	-13.1
CACGCUCAUGCACACACCCACA [hsa-miR-574-3p]	82.7	-3.95	-8.15
CACGGCAAAAGAAACAAUCCA [hsa-miR-4445-3p]	52.2	25.7	-16.4
CACUAGAUUGUGAGCUCCUGGA [hsa-miR-28-3p]	92.2	12.4	-9.21
CACUCAGCCUUGAGGGCACUUUC [hsa-miR-512-5p]	43.4	-15.2	16.2
CACUGCAGGACUCAGCAG [hsa-miR-4418]	55.1	-22.7	-4.26
CACUGCAUUCCUGCUUGGCCCAG [hsa-miR-6807-3p]	48.2	6.87	-9.99
CACUGGCUCCUUUCUGGGUAGA [hsa-miR-892b]	25.4	-22.8	27.6
CACUGUAGGUGAUGGUGAGAGUGGGCA [hsa-miR-1183]	66.4	17.5	0.199
CACUGUGGGUACAUGCU [hsa-miR-4318]	35.1	-33	65.2
CACUGUGUCCUUUCUGCGUAG [hsa-miR-892a]	57.7	-27.3	31.9
CACUGUUUCACCACUGGCUCUU [hsa-miR-4676-3p]	49.2	18.4	-8.83
